Results from publication PMC4142212 (Nature, 2014).

Legend:
ZMYND11 PBP = experiment: Histone peptide pull-down, GST-ZMYND11 PBP; assay type: binding, mouse; conditions: mild buffer: 50 mM Tris-HCl 7.5, 200 mM NaCl, 0.05% NP-40, 1 mM PMSF
[1] = biological target: T1, ZMYND11 PBP (PHD-Bromo-PWWP, aa74-371) (Mus musculus, UniProt Q8R5C8); experiment: ITC, ZMYND11 PBP domains; assay type: binding; conditions: n value fixed at 1
T1 sequence (Q8R5C8 74-371): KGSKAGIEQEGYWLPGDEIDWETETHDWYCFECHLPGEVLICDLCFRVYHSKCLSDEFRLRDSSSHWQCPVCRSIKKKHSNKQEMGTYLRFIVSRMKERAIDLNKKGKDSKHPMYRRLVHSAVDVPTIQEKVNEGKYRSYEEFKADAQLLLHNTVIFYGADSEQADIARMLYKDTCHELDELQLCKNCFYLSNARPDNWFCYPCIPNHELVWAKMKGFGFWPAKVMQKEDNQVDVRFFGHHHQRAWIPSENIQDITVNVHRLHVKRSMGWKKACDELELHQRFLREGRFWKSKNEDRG

[2] = biological target: T2, ZMYND11 BP (Bromo-PWWP, 154-371) (Mus musculus, UniProt Q8R5C8); experiment: ITC, ZMYND11 BP domains; assay type: binding; conditions: n value fixed at 1
T2 sequence (Q8R5C8 154-371): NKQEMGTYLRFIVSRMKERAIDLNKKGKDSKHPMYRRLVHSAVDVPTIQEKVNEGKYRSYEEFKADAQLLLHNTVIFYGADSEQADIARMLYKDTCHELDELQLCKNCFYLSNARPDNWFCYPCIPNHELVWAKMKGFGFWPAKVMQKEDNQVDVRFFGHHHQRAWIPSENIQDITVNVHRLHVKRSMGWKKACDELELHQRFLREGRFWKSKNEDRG

peptide pull-down binding, mild buffer (ZMYND11 PBP): weak binding | Titration c-value [1]: 0.16 | Titration c-value [2]: 0.15
Substance: H3.1K36me3: synthetic histone H3.1_19-42K36me3 peptide
